Key:
H7C2 cells [1] = assay: FKBP52 induction in H7C2 cells (Western blot); format: cell-based, rat; conditions: after 5 days of Dox treatment
Method: Generation of H7C2 cells: The cDNA encoding rabbit FKBP52 was inserted into the HindIII and AccI restriction sites of the pTRE2 vector (Clontech) in order to give pTRE2-FKBP52. Transfection of 100 μg of pTR2-FKBP52 and 10 μg of pTK-hygromicin was carried out in a commercially available PC12 Tet-on cell line (Clontech) that expresses the reverse tetracycline controlled transactivator, using Lipofectamine™ (Invitrogen). Stably transfected cells were selected with 100 μg/ml hygromycin and screened individually. Cell culture: PC12 cells and H7C2 cells were grown in DMEM containing 10% (v/v) horse serum and 5% (v/v) FBS (Invitrogen) at 37° C. in 90% […]/10% CO2. The differentiated neuronal phenotype of cells grown on plastic dishes coated with 10 μg/ml poly(L)-lysine (Sigma), was induced by adding nerve growth factors (NGF) (Invitrogen) for 5 days. Primary cultures from cerebral cortex of embryonic day 17rat foetuses were carried out. Dissociated cells were plated (50,000 cells per ml) on glass coverslips coated with poly(L-ornithine) and cultured in a defined medium in 95% O2/5% CO2 at 37° C.

H7C2 cells [2] = assay: Quantitation of neurite outgrowth; format: cell-based, rat; conditions: 50 nM NGF and Dox, compared to H7C2 not treated with Dox
Method: Cell culture: PC12 cells and H7C2 cells were grown in DMEM containing 10% (v/v) horse serum and 5% (v/v) FBS (Invitrogen) at 37° C. in 90% O2/10% CO2. The differentiated neuronal phenotype of cells grown on plastic dishes coated with 10 μg/ml poly(L)-lysine (Sigma), was induced by adding nerve growth factors (NGF) (Invitrogen) for 5 days. Primary cultures from cerebral cortex of embryonic day 17rat foetuses were carried out. Dissociated cells were plated (50,000 cells per ml) on glass coverslips coated with poly(L-ornithine) and cultured in a defined medium in 95% O2/5% CO2 at 37° C. Quantitation of neurite outgrowth: Random field photographs of PC12 and H7C2 cells, in each of three wells, were analyzed with Neuron J software. The average neurite length was determined by measuring the longest neurites of at least 200 cells randomly selected.

[3] = target: T1, HP-Tau (hyperphosphorylated recombinant hT40) (Homo sapiens, UniProt P10636); assay: Dot blot assay, FKBP52 captured by spotted HP-Tau; format: binding; conditions: 2.2 μg HP-Tau spotted; 0.5 μg FKBP52
T1 construct: made in house; host or cells: E. coli; then phosphorylated in vitro with adult rat brain cytosol in the presence of okadaic acid
Method: (§1) Phosphorylation and hyperphosphorylation of recombinant Tau: Rat brain extract was used as the source of kinase activity, as described (18). Briefly, recombinant hT40 was incubated with cytosol of adult rat brain, in the presence or absence of okadaic acid, to give HP-Tau (hyperphosphorylated-Tau) and P-Tau (phosphorylated-Tau), respectively.
(§2) Dot blot assay: 100 μl of buffer A containing different amounts of hT40 were applied to a nitrocellulose membrane, blocked with 5% non-fat milk in phosphate-buffered saline (PBS) containing 0.1% Tween 20 (PBS-T) at room temperature, washed with PBS-T and buffer A, followed by 2 h incubation at room temperature with 100 μl of buffer A containing […] recombinant FKBP52. The membranes were washed with buffer IP (50 mM Tris (pH 7.5)/150 mM NaCl/2 mM MgCl2/0.1% Brij97 (Sigma)/10% glycerol/protease inhibitors) and with PBS-T. After blocking with milk in PBS-T, the membranes were incubated with anti-FKBP52 761 antibody. […] Quantitation was performed with Quantity-one software using Chemidoc XRS fitted with a 16 bit CCD camera (Biorad).

[4] = target: T2, P-Tau (phosphorylated recombinant hT40) (Homo sapiens, UniProt P10636); assay: Dot blot assay, FKBP52 captured by spotted P-Tau; format: binding; conditions: same amount (2.2 μg) P-Tau as bait; 0.5 μg FKBP52
T2 construct: made in house; host or cells: E. coli; then phosphorylated in vitro with adult rat brain cytosol without okadaic acid
Method: as §1, §2

recombinant Tau (hT40) = target: T3, recombinant Tau (hT40) (Homo sapiens, UniProt P10636); assay: Dot blot assay, FKBP52 captured by spotted recombinant Tau; format: binding
T3 construct: made in house; host or cells: E. coli
Method: as §2

[5] = target: T4, tubulin polymerization induced by recombinant human Tau isoforms (Homo sapiens, UniProt P10636); assay: Microtubule assembly assay (tubulin polymerization induced by recombinant Tau isoforms); format: biochemical, rat; conditions: tubulin 1 mg/ml, 1.7 μM Tau isoforms, 3.5 μM protein, turbidity at 345 nm
T4 construct: made in house; host or cells: Tau: E. coli; tubulin: adult Sprague-Dawley rat brain
Method: Preparation of Tubulin and microtubule assembly assay: Male adult Sprague-Dawley rats (body weight ˜250 g) were obtained from Janvier (Le Genest-St.-Isle, France). They were killed by decapitation, according to institutional guidelines, and whole brains were used immediately to prepare tubulin as described (9). Microtubule assembly assays were performed as in (9).
Protein purification and Overexpression of different Tau isoforms and FKBP52 protein: The six isoforms of human brain Tau were expressed in E. coli from clones hT40, hT39, hT37, hT34, hT24, hT23 and purified as described (28). Full length FKBP52 was affinity purified as in (23). For the Tubulin polymerization assay, FKBP52 bound to glutathione-Sepharose beads (GE Healthcare) were cleaved overnight at 4° C. with 2 units of thrombin (GE Healthcare) and dialyzed against buffer L (0.1 M Mes, 1 mM EGTA, 1 mM MgCL2, 0.1 mM EDTA) with 10% glycerol, and complemented before use to 1 mM GTP and 1 mM DTT and 10 μM PPACK (a potent irreversible inhibitor of thrombin) (Biomol).

[6] = target: T5, recombinant Tau protein (longest isoform) (Homo sapiens, UniProt P10636); assay: Sedimentation assay of Tau polymerization in oxidative conditions; format: biochemical; conditions: Tau 0.5 mg/ml
T5 construct: made in house
Method: To investigate the effect of FKBP52 on Tau oligomerization we monitored by sedimentation assay the ability of recombinant Tau protein (here using the longest isoform) to polymerise in oxidative conditions in presence or absence of recombinant FKBP52. After dialysis of Tau (0.5 mg/ml) overnight at 4° C. in Tris 10 mM pH7.4 and centrifugation at 14000 rpm, quantitative western blotting was used to monitor the polymerization of Tau protein. […] This experiment means that Tau in oxidative conditions self polymerise and confirms, as already reported, the importance of cysteines in first step of Tau oligomerization process (Schweers et al 1995).

T3 sequence (P10636 1-441 isoform P10636-8): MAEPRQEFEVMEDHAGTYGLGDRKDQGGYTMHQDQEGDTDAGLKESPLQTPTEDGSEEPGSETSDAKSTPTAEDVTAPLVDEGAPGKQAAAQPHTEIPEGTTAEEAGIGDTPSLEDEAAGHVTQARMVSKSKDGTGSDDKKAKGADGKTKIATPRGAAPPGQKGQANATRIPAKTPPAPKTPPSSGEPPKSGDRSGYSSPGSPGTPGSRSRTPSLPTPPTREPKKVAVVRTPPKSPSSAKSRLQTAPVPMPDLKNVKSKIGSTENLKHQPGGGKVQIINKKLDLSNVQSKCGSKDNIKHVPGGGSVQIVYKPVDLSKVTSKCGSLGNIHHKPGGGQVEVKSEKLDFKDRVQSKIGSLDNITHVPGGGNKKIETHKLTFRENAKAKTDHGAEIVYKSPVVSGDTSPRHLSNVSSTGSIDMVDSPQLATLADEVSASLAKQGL
T5 sequence (P10636 1-441 isoform P10636-8): as above
T1 sequence (P10636 1-441 isoform P10636-8): as above
T2 sequence (P10636 1-441 isoform P10636-8): as above
T4 sequence (P10636 2-441 isoform P10636-8): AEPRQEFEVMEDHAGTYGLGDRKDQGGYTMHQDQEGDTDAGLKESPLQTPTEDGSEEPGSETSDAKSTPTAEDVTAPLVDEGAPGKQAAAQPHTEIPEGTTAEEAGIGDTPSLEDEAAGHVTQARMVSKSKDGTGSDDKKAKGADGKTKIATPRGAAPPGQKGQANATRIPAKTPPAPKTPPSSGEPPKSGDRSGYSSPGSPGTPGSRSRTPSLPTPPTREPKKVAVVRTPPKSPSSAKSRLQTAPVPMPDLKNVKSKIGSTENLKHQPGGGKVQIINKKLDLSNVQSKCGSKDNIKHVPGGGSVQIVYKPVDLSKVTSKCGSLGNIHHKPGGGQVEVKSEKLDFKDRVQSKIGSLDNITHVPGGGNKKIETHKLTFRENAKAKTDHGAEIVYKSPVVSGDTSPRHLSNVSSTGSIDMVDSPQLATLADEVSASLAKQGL

## C[C@H]1c2cccc(O)c2C(=O)C2=C(O)[C@]3(O)C(=O)C(C(N)=O)=C(O)[C@@H](N(C)C)[C@@H]3[C@@H](O)[C@@H]21 [Dox, doxycycline]
H7C2 cells [1]
  FKBP52 induction: about 4 fold
H7C2 cells [2]
  decrease in neurite length: 40%

B1: FKBP52: purified recombinant full length immunophilin FKBP52 (FK506-Binding Protein), cleaved from GST with thrombin (protein, UniProt Q02790 1-459, looked up)
chain: MTAEEMKATESGAQSAPLPMEGVDISPKQDEGVLKVIKREGTGTEMPMIGDRVFVHYTGWLLDGTKFDSSLDRKDKFSFDLGKGEVIKAWDIAIATMKVGEVCHITCKPEYAYGSAGSPPKIPPNATLVFEVELFEFKGEDLTEEEDGGIIRRIQTRGEGYAKPNEGAIVEVALEGYYKDKLFDQRELRFEIGEGENLDLPYGLERAIQRMEKGEHSIVYLKPSYAFGSVGKEKFQIPPNAELKYELHLKSFEKAKESWEMNSEEKLEQSTIVKERGTVYFKEGKYKQALLQYKKIVSWLEYESSFSNEEAQKAQALRLASHLNLAMCHLKLQAFSAAIESCNKALELDSNNEKGLFRRGEAHLAVNDFELARADFQKVLQLYPNNKAAKTQLAVCQQRIRRQLAREKKLYANMFERLAEEENKAKAEASSGDHPTDTEMKEEQKSNTAGSQSQVETEA
modifications: full-length
[3]
  FKBP52 retained by HP-Tau: 73%
[4]
  FKBP52 captured by P-Tau: 41%
Recombinant Tau (hT40); 2.2 μg hT40 with cytosol added just prior to spotting
  FKBP52 retained by hT40 in the presence of cytosolic proteins: 6.6%
Recombinant Tau (hT40); 2.2 μg non phosphorylated hT40
  FKBP52 retained by hT40: 3.5%
Recombinant Tau (hT40); different amounts of hT40 spotted, GST spot as control
  retention by spotted Tau: retained in a dose dependent manner
[5]
  effect on microtubule formation induced by Tau: formation of microtubules was prevented
[6]; FKBP52 at 0.1 or 0.25 mg/ml
  Tau polymers in pellet: increasing Tau polymers in pellet
[6]; equimolecular or two times quantities of FKBP52 versus Tau
  Tau polymers in pellet: prevent the presence of pelletable polymers of Tau
[6]; oxidative medium, equimolecular coincubation
  Tau in pellet fraction: no detectable presence of Tau in pellet fraction

From patent US9518995B2, “FKBP52-Tau interaction as a novel therapeutical target for treating the neurological disorders involving Tau dysfunction” (Institut National de la Sante et de la Recherche Medicale …, priority 2009, dated 2016)
